Test results from US20160272683A1 (Novo Nordisk, published 2016).
Numbered stars: 1 amine (or outer) side, 2 acyl side, 3 side chain; on linkers, the order of the positions; unused ones are H or OH. * marks the point of attachment. C20 diacid = O=C(O)CCCCCCCCCCCCCCCCCCC(=O)*; C18 diacid = O=C(O)CCCCCCCCCCCCCCCCC(=O)*; γGlu = O=C(O)[C@H](CCC(=O)[*:2])N[*:1]; AEEA = NCCOCCOCC(=O)O

T1: human calcitonin receptor (human, UniProt P30988 25-474)
T1 sequence (looked up): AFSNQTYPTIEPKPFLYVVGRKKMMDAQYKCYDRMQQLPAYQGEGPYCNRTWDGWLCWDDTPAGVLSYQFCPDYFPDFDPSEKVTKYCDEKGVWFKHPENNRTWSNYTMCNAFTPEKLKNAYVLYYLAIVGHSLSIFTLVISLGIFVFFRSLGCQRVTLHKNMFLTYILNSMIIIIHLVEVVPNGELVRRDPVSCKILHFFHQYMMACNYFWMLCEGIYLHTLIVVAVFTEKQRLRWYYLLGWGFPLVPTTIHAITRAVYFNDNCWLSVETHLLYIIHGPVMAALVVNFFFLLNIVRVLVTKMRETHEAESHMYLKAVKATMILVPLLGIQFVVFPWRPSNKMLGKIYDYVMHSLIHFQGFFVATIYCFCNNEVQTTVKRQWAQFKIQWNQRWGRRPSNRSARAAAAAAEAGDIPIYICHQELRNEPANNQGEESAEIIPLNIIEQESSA

T2: human amylin 3(a) receptor (human calcitonin receptor co-expressed with RAMP-3) (human, UniProt P30988 25-474; O60896 24-148, limits assumed)
T2 sequence (looked up) 1: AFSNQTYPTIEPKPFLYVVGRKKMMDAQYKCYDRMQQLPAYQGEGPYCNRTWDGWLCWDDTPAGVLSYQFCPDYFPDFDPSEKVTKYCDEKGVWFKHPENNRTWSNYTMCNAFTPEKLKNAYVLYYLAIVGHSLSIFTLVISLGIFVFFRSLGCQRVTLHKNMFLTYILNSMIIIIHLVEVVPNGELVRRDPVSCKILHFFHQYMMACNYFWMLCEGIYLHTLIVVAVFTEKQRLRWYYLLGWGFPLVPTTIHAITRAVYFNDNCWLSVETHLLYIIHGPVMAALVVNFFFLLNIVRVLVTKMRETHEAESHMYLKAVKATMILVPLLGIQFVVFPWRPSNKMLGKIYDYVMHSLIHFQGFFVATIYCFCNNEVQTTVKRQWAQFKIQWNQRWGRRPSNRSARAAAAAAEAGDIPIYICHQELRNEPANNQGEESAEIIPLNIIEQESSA
T2 sequence (looked up) 2: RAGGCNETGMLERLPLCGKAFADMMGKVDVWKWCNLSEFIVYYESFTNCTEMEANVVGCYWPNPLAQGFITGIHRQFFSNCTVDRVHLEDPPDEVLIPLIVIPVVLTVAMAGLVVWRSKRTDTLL


Key:
[1] = target: T1, human calcitonin receptor; assay: cell-based or functional assay
[2] = target: T2, human amylin 3(a) receptor (human …); assay: cell-based or functional assay

Binder	hCTR funct. EC50 (pM) [1] [pM]	hAmylin-R funct. EC50 (pM) [2] [pM]
{C18 diacid}-EASELSTAALGRLSAELHEIATLPRTETGPESP-NH2 (SMILES CC[C@H](C)[C@H](NC(=O)[C@H](CCC(=O)O)NC(=O)[C@H](Cc1c[nH]cn1)NC(=O)[C@H](CC(C)C)NC(=O)[C@H](CCC(=O)O)NC(=O)[C@H](C)NC(=O)[C@H](CO)NC(=O)[C@H](CC(C)C)NC(=O)[C@H](CCCNC(=N)N)NC(=O)CNC(=O)[C@H](CC(C)C)NC(=O)[C@H](C)NC(=O)[C@H](C)NC(=O)[C@@H](NC(=O)[C@H](CO)NC(=O)[C@H](CC(C)C)NC(=O)[C@H](CCC(=O)O)NC(=O)[C@H](CO)NC(=O)[C@H](C)NC(=O)[C@H](CCC(=O)O)NC(=O)CCCCCCCCCCCCCCCCC(=O)O)[C@@H](C)O)C(=O)N[C@@H](C)C(=O)N[C@H](C(=O)N[C@@H](CC(C)C)C(=O)N1CCC[C@H]1C(=O)N[C@@H](CCCNC(=N)N)C(=O)N[C@H](C(=O)N[C@@H](CCC(=O)O)C(=O)N[C@H](C(=O)NCC(=O)N1CCC[C@H]1C(=O)N[C@@H](CCC(=O)O)C(=O)N[C@@H](CO)C(=O)N1CCC[C@H]1C(N)=O)[C@@H](C)O)[C@@H](C)O)[C@@H](C)O) [[N-terminal(C18 diacid), 20I]mimylin]	5	6
{C18 diacid-γGlu-AEEA-AEEA}-ASGLSTAVLGRLSQELHELQTYPRTETGSGTY-NH2 (SMILES CC(C)C[C@H](NC(=O)CNC(=O)[C@H](CO)NC(=O)[C@H](C)NC(=O)COCCOCCNC(=O)COCCOCCNC(=O)CC[C@H](NC(=O)CCCCCCCCCCCCCCCCC(=O)O)C(=O)O)C(=O)N[C@@H](CO)C(=O)N[C@H](C(=O)N[C@@H](C)C(=O)N[C@H](C(=O)N[C@@H](CC(C)C)C(=O)NCC(=O)N[C@@H](CCCNC(=N)N)C(=O)N[C@@H](CC(C)C)C(=O)N[C@@H](CO)C(=O)N[C@@H](CCC(N)=O)C(=O)N[C@@H](CCC(=O)O)C(=O)N[C@@H](CC(C)C)C(=O)N[C@@H](Cc1c[nH]cn1)C(=O)N[C@@H](CCC(=O)O)C(=O)N[C@@H](CC(C)C)C(=O)N[C@@H](CCC(N)=O)C(=O)N[C@H](C(=O)N[C@@H](Cc1ccc(O)cc1)C(=O)N1CCC[C@H]1C(=O)N[C@@H](CCCNC(=N)N)C(=O)N[C@H](C(=O)N[C@@H](CCC(=O)O)C(=O)N[C@H](C(=O)NCC(=O)N[C@@H](CO)C(=O)NCC(=O)N[C@H](C(=O)N[C@@H](Cc1ccc(O)cc1)C(N)=O)[C@@H](C)O)[C@@H](C)O)[C@@H](C)O)[C@@H](C)O)C(C)C)[C@@H](C)O) [[N-terminal(C18 diacid-gGlu-2xOEG), des1, 4G, 9V, 15Q, 21Q, 23Y, 30S, 31G, 32T, 33Y]mimylin]	22	50

Continued, values first:

hCTR funct. EC50 (pM) [1] [pM]	hAmylin-R funct. EC50 (pM) [2] [pM]	Binder
31	31	{C20 diacid-γGlu}-LSGLSTAVLGRLSQELHELQTYPRTETGSQTY-NH2 (SMILES CC(C)C[C@H](NC(=O)CC[C@H](NC(=O)CCCCCCCCCCCCCCCCCCC(=O)O)C(=O)O)C(=O)N[C@@H](CO)C(=O)NCC(=O)N[C@@H](CC(C)C)C(=O)N[C@@H](CO)C(=O)N[C@H](C(=O)N[C@@H](C)C(=O)N[C@H](C(=O)N[C@@H](CC(C)C)C(=O)NCC(=O)N[C@@H](CCCNC(=N)N)C(=O)N[C@@H](CC(C)C)C(=O)N[C@@H](CO)C(=O)N[C@@H](CCC(N)=O)C(=O)N[C@@H](CCC(=O)O)C(=O)N[C@@H](CC(C)C)C(=O)N[C@@H](Cc1c[nH]cn1)C(=O)N[C@@H](CCC(=O)O)C(=O)N[C@@H](CC(C)C)C(=O)N[C@@H](CCC(N)=O)C(=O)N[C@H](C(=O)N[C@@H](Cc1ccc(O)cc1)C(=O)N1CCC[C@H]1C(=O)N[C@@H](CCCNC(=N)N)C(=O)N[C@H](C(=O)N[C@@H](CCC(=O)O)C(=O)N[C@H](C(=O)NCC(=O)N[C@@H](CO)C(=O)N[C@@H](CCC(N)=O)C(=O)N[C@H](C(=O)N[C@@H](Cc1ccc(O)cc1)C(N)=O)[C@@H](C)O)[C@@H](C)O)[C@@H](C)O)[C@@H](C)O)C(C)C)[C@@H](C)O) [[N-terminal(C20 diacid-gGlu), des1, 2L, 4G, 9V, 15Q, 21Q, 23Y, 30S, 31Q, 32T, 33Y]mimylin]
28	24	{C20 diacid-γGlu}-LSGLSTAVLGRLSAELHELSTYPRTETGSGTY-NH2 (SMILES CC(C)C[C@H](NC(=O)CC[C@H](NC(=O)CCCCCCCCCCCCCCCCCCC(=O)O)C(=O)O)C(=O)N[C@@H](CO)C(=O)NCC(=O)N[C@@H](CC(C)C)C(=O)N[C@@H](CO)C(=O)N[C@H](C(=O)N[C@@H](C)C(=O)N[C@H](C(=O)N[C@@H](CC(C)C)C(=O)NCC(=O)N[C@@H](CCCNC(=N)N)C(=O)N[C@@H](CC(C)C)C(=O)N[C@@H](CO)C(=O)N[C@@H](C)C(=O)N[C@@H](CCC(=O)O)C(=O)N[C@@H](CC(C)C)C(=O)N[C@@H](Cc1c[nH]cn1)C(=O)N[C@@H](CCC(=O)O)C(=O)N[C@@H](CC(C)C)C(=O)N[C@@H](CO)C(=O)N[C@H](C(=O)N[C@@H](Cc1ccc(O)cc1)C(=O)N1CCC[C@H]1C(=O)N[C@@H](CCCNC(=N)N)C(=O)N[C@H](C(=O)N[C@@H](CCC(=O)O)C(=O)N[C@H](C(=O)NCC(=O)N[C@@H](CO)C(=O)NCC(=O)N[C@H](C(=O)N[C@@H](Cc1ccc(O)cc1)C(N)=O)[C@@H](C)O)[C@@H](C)O)[C@@H](C)O)[C@@H](C)O)C(C)C)[C@@H](C)O) [[N-terminal(C20 diacid-gGlu), des1, 2L, 4G, 9V, 21S, 23Y, 30S, 31G, 32T, 33Y]mimylin]
